{
  "source": "paper PMC8186250",
  "binders": {"B1": {"name": "2xFR (dsDNA)", "DNA 1": "ATTAGGATAGCCTATGCTACCCAGATATAGATTAGGATAGCATATGCTACCCAGATATAGAGAGCGTCACCTAAGCC", "DNA 2": "GGCTTAGGTGACGCTCTATATCTGGGTAGCATATGCTATCCTAATCTATATCTGGGTAGCATAGGCTATCCTAAT"}},
  "target": "EBNA1 DBD WT (Epstein-Barr virus (B95-8), UniProt P03211 459-607)",
  "sequence (P03211 459-607)": "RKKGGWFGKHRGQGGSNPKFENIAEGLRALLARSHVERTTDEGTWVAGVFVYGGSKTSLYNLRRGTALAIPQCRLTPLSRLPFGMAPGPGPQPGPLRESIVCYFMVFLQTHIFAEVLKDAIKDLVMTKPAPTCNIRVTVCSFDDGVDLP",
  "experiment": "SDS-EMSA",
  "data": [
    {"binder": "B1", "values": [
      {"measurement": "binding result", "value": "binds"}
    ]}
  ]
}
